# Experimental data reported in patent publication US7312045B2, “Aggrecanase-1 and -2 peptide substrates and methods” (Ortho-McNeil Pharmaceutical, Inc., priority 2002, dated 2007).
# Primed or numbered codes have the meaning given here. No end group written: not given here. *: point of attachment. Dabcyl′ = CN(C)c1ccc(/N=N/c2ccc(C(=O)*)cc2)cc1
# Tests used:
# Format in all cases: biochemical
# aggrecanase-2 [1] = target: T1, aggrecanase-2 (Homo sapiens, UniProt Q9UNA0); experiment: IC50 analysis for inhibition of aggrecanase-2, FasL1 FRET peptide cleavage; conditions: FasL1 225 μM, 60 minutes at room temperature, inhibitor 0.1 to 12.5 μM
# T1 construct: made in house; host or cells: Sf9 cells (baculovirus, pFastBac1)
# T1 sequence (Q9UNA0 262-482): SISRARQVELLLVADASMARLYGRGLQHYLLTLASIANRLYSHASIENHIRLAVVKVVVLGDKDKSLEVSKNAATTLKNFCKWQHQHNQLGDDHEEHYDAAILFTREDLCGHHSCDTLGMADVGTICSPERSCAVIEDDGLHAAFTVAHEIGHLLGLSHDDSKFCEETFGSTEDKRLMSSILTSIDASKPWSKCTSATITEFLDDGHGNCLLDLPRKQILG
# Procedure: Aggrecanase-2 (0.5 to 1 μg of protein, 17 to 33 picomoles) was diluted in assay buffer (50 mM HEPES pH 7.5, 10 mM CaCl2, 0.1M NaCl, 0.05% Brij-35). Samples were prepared containing Inhibitor A, B or C (shown above) at final concentrations ranging from 0.1 to 12.5 μM (final DMSO concentration of 1.5%). Duplicate assays were run for each concentration of Inhibitor A, B and C (purchased from Peptides International, TAPI-0, Cat. No. INH 3850-P1) for 60 minutes at room temperature. The reaction was initiated by the addition of FasL1 peptide substrate to a final concentration of 225 μM. The reaction rates over 60 minutes at room temperature, in the absence (control) and presence of various concentrations of the inhibitor, were determined by linear regression of the data points. The reaction rate data in FIG. 4B were fitted by non-linear regression using the program Grafit (Erithacus Software).
# Aggrecanase-1 = target: T2, Aggrecanase-1 (Homo sapiens, UniProt O75173); experiment: Drug screening assay, aggrecanase-1 FasL1 FRET peptide cleavage; conditions: inhibitor 7.5 micromolar, FasL1 225 μM, 200 minutes at room temperature
# T2 construct: made in house; host or cells: Sf9 cells (baculovirus, pFastBac1)
# T2 sequence (O75173 213-437): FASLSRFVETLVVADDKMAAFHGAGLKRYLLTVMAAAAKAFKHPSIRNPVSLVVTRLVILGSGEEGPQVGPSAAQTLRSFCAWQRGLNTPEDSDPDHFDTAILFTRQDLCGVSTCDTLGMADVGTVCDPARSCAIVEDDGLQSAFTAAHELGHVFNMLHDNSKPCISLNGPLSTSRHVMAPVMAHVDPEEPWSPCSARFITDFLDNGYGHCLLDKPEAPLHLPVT
# Procedure: Aggrecanase-1 ([…] of protein, 85 to 167 picomoles) was diluted in assay buffer (50 mM HEPES pH 7.5, 10 mM CaCl2, 0.1M NaCl, 0.05% Brij-35). Samples were prepared containing putative inhibitors A (Chen et al. Biorg. Med. Chem. Lett. 6(13):1601-1606, 1996) or B (Bailey, et al. Biorg. Med. Chem. Lett. 9(21):3165-3170, 1999), shown below, at a final concentration of 7.5 micromolar. The final % DMSO in the assay was 3% and it was determined experimentally that this concentration was not detrimental to the activity of the enzyme. The reaction was initiated by the addition of FasL1 peptide substrate to a final concentration of 225 μM and readings were taken at one-minute intervals, for a total of 200 minutes at room temperature.
# The assay was always performed at enzyme and substrate concentrations where the activity was linearly related to enzyme concentration and where the increase in fluorescence (reaction rate) was linear for at least the time of the assay. From FIG. 4A, it can be seen that for kinetic analysis, the signal-to-noise ratio is effectively infinite, as no change in the background (blank, no enzyme) is observed over the time of the assay. For endpoint measurements, the enzyme and substrate concentrations could be adjusted to achieve the desired signal-to-noise ratio. […]
# truncated aggrecanase-2 = target: T3, truncated aggrecanase-2 (Homo sapiens, UniProt Q9UNA0); experiment: FRET peptide substrate screening, truncated aggrecanase-2; conditions: peptide 50 uM, 60 minutes at room temperature
# T3 construct: made in house; host or cells: Sf9 cells (baculovirus, pFastBac1)
# T3 sequence (Q9UNA0 262-482): T1 sequence (Q9UNA0 262-482)
# Text: (§1) Fifty-six different peptides were synthesized to test for protease activity (see Table 3 below). The peptides included a collection of substrates for other proteases, as well as a number of sequences corresponding to membrane proximal cleavage sites of various proteins postulated to be released by metalloproteases (including those published by (Roghani et al., J. Biol. Chem. 274:3531-340, 1999) for ADAM9/MDC9). In order to use the principle of fluorescence resonance energy transfer, or FRET, the peptides were labeled at the C-terminus with Dabcyl and at the N-terminus with Aedans (or vice versa). Thus cleavage of the peptides was monitored by the increase in Aedans fluorescence at 460 nm (excitation 360 nm) as a result of the decrease in proximity of the Dabcyl quencher. The assay was performed by diluting the truncated aggrecanase-1 (approximately 2.5 to 5 μg of protein, 85 to 167 picomoles, SEQ ID NO:8) or truncated aggrecanase-2 (approximately 0.5 to 1 μg of protein, 17 to 33 picomoles, SEQ ID NO:9), in assay buffer (50 mM HEPES pH 7.5, 10 mM CaCl2, 0.1M NaCl and 0.05% (w/v) Brij-35 detergent (Sigma).
# (§2) The reaction was initiated by the addition of peptide substrate to a final concentration of 100 uM for truncated aggrecanase-1 and 50 uM for truncated aggrecanase-2. The assays were typically run for 60 minutes at room temperature and the slope of the kinetic increase in fluorescence was determined to calculate the rate of the reaction.
# FIG. 2 illustrates the relative activities for the 56 different peptides, A1 to H7 (only every alternate peptide is numbered in FIG. 2) expressed in arbitrary, but relative units. […] Peptide D7 (16 amino acids) corresponds to the sequence within aggrecan containing the Glu373-Ala374 aggrecanase cleavage site.
# aggrecanase-2 [2] = target: T1, aggrecanase-2; experiment: Kinetic analysis of aggrecanase-2 peptide cleavage (Km, Vm); conditions: aggrecanase-2, 60 minutes at room temperature, non-linear fitting; for Vm: rfu = relative fluorescence units
# Procedure: To confirm the screening assay, aggrecanase-2 was further analyzed for its rate of catalysis using 2 different peptides. The assay was performed by diluting the aggrecanase-2 in assay buffer (50 mM HEPES pH 7.5, 10 mM CaCl2, 0.1M NaCl and 0.05% Brij-35). […] The assay was run for 60 minutes at room temperature. FIG. 3 illustrates the proteolytic activity (in relative fluorescence units per minute) as a function of peptide concentration for peptides FasL1 and 29CD23. The curves were fitted to the data with the program Grafit (Erithacus Software Lmited). The Vmax and Km for each substrate were calculated by non-linear fitting of the data. The cleavage site for aggrecanase-2 within each peptide was determined by LC-MS analysis to be between a glutamic acid and leucine residues in each case, as indicated in Table 2 by a carot within each peptide sequence. […] However, these are clearly not the only requirements for efficient cleavage, as a number of the 56 peptides tested have similar residues and were not cleaved by the aggrecanases.
# truncated aggrecanase-1 = target: T4, truncated aggrecanase-1 (Homo sapiens, UniProt O75173); experiment: FRET peptide substrate screening, truncated aggrecanase-1; conditions: peptide 100 uM, 60 minutes at room temperature
# T4 construct: made in house; host or cells: Sf9 cells (baculovirus, pFastBac1)
# T4 sequence (O75173 213-437): T2 sequence (O75173 213-437)
# Text: as §1, with “The assay was performed by diluting the truncated aggrecanase-1 (approximately 2.5 to 5 μg of protein, 85 to 167 picomoles, SEQ ID NO:8) or truncated aggrecanase-2 (approximately 0.5 to 1 μg of protein, 17 to 33 picomoles, SEQ ID NO:9), in assay buffer (50 mM HEPES pH 7.5, 10 mM CaCl2, 0.1M NaCl and 0.05% (w/v) Brij-35 detergent (Sigma).” left out
# as §2, with “reaction. […]” for “reaction.”
# MMP7 = target: T5, MMP7 (Homo sapiens, UniProt P09237); experiment: Similar peptide substrate screening assay with MMP7; conditions: similar screening assays
# T5 construct: purchased Chemicon CC1059
# T5 sequence (P09237 95-267): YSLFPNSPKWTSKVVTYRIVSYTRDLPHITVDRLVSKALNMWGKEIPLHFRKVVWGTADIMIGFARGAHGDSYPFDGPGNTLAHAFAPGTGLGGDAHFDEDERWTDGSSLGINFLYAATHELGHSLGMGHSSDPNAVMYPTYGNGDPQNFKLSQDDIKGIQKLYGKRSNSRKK
# MMP13 = target: T6, MMP13 (Homo sapiens, UniProt P45452); experiment: Similar peptide substrate screening assay with MMP13; conditions: similar screening assays
# T6 construct: purchased Chemicon CC068
Compound,IC50 (aggrecanase-2 [1]),inhibition of aggrecanase-1 enzyme activity (FIG. 4A) (Aggrecanase-1),relative activity of truncated aggrecanase-2 for the peptide (FIG. 2) (truncated aggrecanase-2),Km (aggrecanase-2 [2]),Vm (aggrecanase-2 [2]),relative activity of truncated aggrecanase-1 for the peptide (FIG. 2) (truncated aggrecanase-1),other results
"CC(C)C[C@@H](CC(=O)NO)C(=O)N[C@@H](Cc1ccc2ccccc2c1)C(=O)N[C@@H](C)C(N)=O [Inhibitor C, TAPI-0]",102 ± 23 nM,–,–,–,–,–,–
CC(C)C[C@@H](CC(=O)NO)C(=O)N[C@@H](CC(C)C)c1ncc(-c2ccccc2)[nH]1 [Inhibitor A],118 ± 5 nM,completely inhibited,–,–,–,–,–
"(Aedans)EADLSSFKSQEL(Dabcyl)K-amide (EADLSSFKSQELK(Dabcyl′)-NH2; not fully specified (residue 1, N-terminus); printed as (Aedans)EADLSSFKSQEL(Dabcyl)K-amide; also: Aedans label on N-terminal Glu (N-terminus or side chain not given here)) [Peptide 29CD23]",–,–,high activity,40 µM,0.6 rfu/min,–,–
"(Aedans)ERNITEGEARGSVIL(Dabcyl)K-amide (ERNITEGEARGSVILK(Dabcyl′)-NH2; not fully specified (residue 1, N-terminus); printed as (Aedans)ERNITEGEARGSVIL(Dabcyl)K-amide; also: Aedans label on N-terminal Glu (N-terminus or side chain not given here)) [Peptide D7]",–,–,Neither truncated aggrecanase-1 nor truncated aggrecanase-2 showed any activity,–,–,Neither truncated aggrecanase-1 nor truncated aggrecanase-2 showed any activity,–
CC(C)(C)C(NC(=O)C(Cc1ccc2ccccc2c1)[C@H](O)C(=O)NO)C(N)=O (stereo partly shown) [Inhibitor B],38 ± 8 nM,completely inhibited,–,–,–,–,–
"(Aedans)EKELAELRESTS(Dabcyl)K-amide (EKELAELRESTSK(Dabcyl′)-NH2; not fully specified (residue 1, N-terminus); printed as (Aedans)EKELAELRESTS(Dabcyl)K-amide; also: Aedans label on N-terminal Glu (N-terminus or side chain not given here)) [FasL1]",–,–,highest activity,80 µM,2.8 rfu/min,highest activity,suitability as substrate for MMP7 (MMP7): suitable substrate; suitability as substrate for MMP13 (MMP13): suitable substrate
